The supplement of paper PMC12042874
± gives the uncertainty stated by the source.

Assay: amyloid nucleation score (Sup35N fusion, yeast selection) (log enrichment); library NNK1; higher = more nucleation; inactive = no reads after selection
Outline: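 On medium lacking adenine and uracil, psi-negative yeast expressing peptides of 20 random codons fused to Sup35N were grown 7 days at 30°C after a 24-hour induction with 100 μM copper sulfate. Illumina sequencing of input and output plasmid inserts gave the reads, and sequences under 100 input reads were excluded. The nucleation score is the DiMSum log enrichment of output over input reads, centred on the mode score of non-aggregating sequences.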
For CLPLACLKTLSNDSVWLDCA, the amyloid nucleation score was 0.402 ± 0.35. For TWEFRYNFFYNVPRLQTYKI, the amyloid nucleation score was -0.169 ± 0.42. For THQGWYSQNEHERRWIVHSF, the amyloid nucleation score was 0.028 ± 0.58. With IKYINDITFLVLPYWFI the amyloid nucleation score was 3.6 ± 0.072. Substance MYVSDCCSCICMVVDTRSIF has an amyloid nucleation score of 0.292 ± 0.39. Substance WGFRENETMV has an amyloid nucleation score of -0.742 ± 0.46. HLWPVVSKGWDGFRCVSQVF showed an amyloid nucleation score of -1.25 ± 2.4. For SMSPWDFNICCMNVCTTLLT, the amyloid nucleation score was 2.77 ± 0.25. Work on CLWGILDEGRFGSWFNNFAS yielded an amyloid nucleation score of 0.467 ± 0.9. With CLLSRLYMVSLFWS the amyloid nucleation score was 0.033 ± 0.43. With VGLLKAAEDGVLRIGVRRSW the amyloid nucleation score was 0.631 ± 0.8. Substance SLNSMVSLTWVRRDYTIWKR has an amyloid nucleation score of 0.001 ± 0.23. In the case of SKKSMYFLVRNWSQNLTRAG, the amyloid nucleation score is reported as 2.21 ± 0.63. For AGNRTVYWMLTSVSTSG, the amyloid nucleation score was 0.64 ± 0.75. Work on WGIVVNQYVVRSVRLKLQDR yielded an amyloid nucleation score of 2.8 ± 0.13. For ANLLINGFLSRSRDNYACYR, the amyloid nucleation score was 1.56 ± 0.18. In the case of GMRVRNRFVVSDSSYPPASH, the amyloid nucleation score is reported as -0.024 ± 0.26. WLSPQG showed an amyloid nucleation score of 0.453 ± 0.62. Substance YGLDPHSAAEALLVRPNTGR has an amyloid nucleation score of -0.18 ± 0.41. VCAQFSRGRIFTAIVIGWTQ gave an amyloid nucleation score of 0.857 ± 0.64. In the case of LVFDGNLETCRQ, the amyloid nucleation score is reported as 0.164 ± 0.61. With FVFKIWQSD the amyloid nucleation score was 0.116 ± 0.58. With YTYDLYVTSVLNVSRESSHC the amyloid nucleation score was -0.343 ± 1.4. With VKQTGLVARMRWVTGLARDG the amyloid nucleation score was -0.921 ± 1.3. SHPFTFSCAHILLWMSLRRF showed an amyloid nucleation score of 0.276 ± 0.45. With VKCYLDLINFRYLLDLGDEA the amyloid nucleation score was 0.066 ± 0.2. Substance VYSRPL has an amyloid nucleation score of 0.098 ± 0.57. FWYFMLNMVQPRY showed an amyloid nucleation score of -0.198 ± 0.87. YVIEIMISHVPAIWRGYTCS gave an amyloid nucleation score of 0.554 ± 0.71. LGLGQSGRV showed an amyloid nucleation score of -0.15 ± 0.71. Substance VLLDGAKMSESAEGGISALW has an amyloid nucleation score of -0.161 ± 0.46. GSFRMVSMLSGISWARVARF gave an amyloid nucleation score of 3.04 ± 0.18. CLYWFLKEHFC gave an amyloid nucleation score of 1.06 ± 0.78. Work on VPNEYGNSEVRLLDLLGDLE yielded an amyloid nucleation score of -0.435 ± 0.36. Substance RIKYAWFCVFGTWNRIRVRI has an amyloid nucleation score of 1.1 ± 0.68. ELAAMCSWAYSN gave an amyloid nucleation score of 0.097 ± 0.41. IYSRVGWETSWDWSVSVWGF gave an amyloid nucleation score of 0.031 ± 0.37. In the case of HPFKLGVFNISGESLSTA, the amyloid nucleation score is reported as -0.802 ± 2.1. For TNGLCFI, the amyloid nucleation score was -0.833 ± 0.74. For MCPTLVLSA, the amyloid nucleation score was “inactive”. Substance VVTEKGLPWARQW has an amyloid nucleation score of -0.205 ± 0.33. YRGYDKREYCSHFFTWDTYG showed an amyloid nucleation score of 0.821 ± 0.72. With GLWYHA the amyloid nucleation score was 0.025 ± 0.62. RNSSGRGERLLVQYAQKKKR gave an amyloid nucleation score of -0.136 ± 0.41. MEYTYVQTSKYKHERNATWC showed an amyloid nucleation score of 0.008 ± 0.97. Work on RTNVWVAFVDSRSHGQFCQK yielded an amyloid nucleation score of 3.68 ± 0.18. Work on TRSLPFSIS yielded an amyloid nucleation score of 0.109 ± 1.4. MSNMHNYLRLIWDTVCIQF gave an amyloid nucleation score of -0.083 ± 0.77. GFWVWSSSRRCLIVRFQVMG showed an amyloid nucleation score of -0.373 ± 0.56. In the case of GAIEASLVYRISNFKAGFAP, the amyloid nucleation score is reported as 1.91 ± 0.35. Work on LDLSSWGTVP yielded an amyloid nucleation score of 0.122 ± 0.44. FFKGGVNGIFINNGSTFG gave an amyloid nucleation score of 4.91 ± 0.067. In the case of WYYDCWIYL, the amyloid nucleation score is reported as 1.25 ± 0.46. For RETIPCVEVFTHRSLDFL, the amyloid nucleation score was 1.15 ± 0.83. With SVTERCKLQSHHDMVGGM the amyloid nucleation score was 3.37 ± 0.13. With VLPRVWCCNADNDSIVDFRG the amyloid nucleation score was 2.35 ± 0.097. Work on KVFYVLLHGSILSNRGMWQT yielded an amyloid nucleation score of -0.725 ± 1.2. DHNLWFDNAFMSLCCCMNMI showed an amyloid nucleation score of 3.42 ± 0.19. In the case of LNNAKCKLVSIFHLGVWVGM, the amyloid nucleation score is reported as -1.12 ± 0.96. With SGGLNFLGLPVVFF the amyloid nucleation score was 0.173 ± 0.92. Work on RLLWRWWRAVDVRGHDRLNL yielded an amyloid nucleation score of -0.306 ± 1.2. Substance FCKWCRFDDCTRGYIYFVRR has an amyloid nucleation score of 1.76 ± 0.37. For SGIPSVLATGYSYKF, the amyloid nucleation score was -0.273 ± 0.29. In the case of HMAAYKVSGVKSGSPEW, the amyloid nucleation score is reported as -0.145 ± 0.59. Work on MKSALKALTEHSPQSYDWCR yielded an amyloid nucleation score of -0.4 ± 0.61. For SYWKNTVSCYVFFGMSRSRT, the amyloid nucleation score was -0.634 ± 1.4. SFYLFCPNCGRWTVFGEYS showed an amyloid nucleation score of -1 ± 0.31. With HVKACLVVASYP the amyloid nucleation score was 0.94 ± 0.5. For QMKVISLVRHE, the amyloid nucleation score was “inactive”. Substance FEERFMFYTNIDNLLYPLSA has an amyloid nucleation score of 0.848 ± 0.42. MMSSFDVWDS gave an amyloid nucleation score of -0.077 ± 0.73. With SIFLCVSLSVTCETILAGLD the amyloid nucleation score was 2.8 ± 0.16. With NSYKNYCVLCECRC the amyloid nucleation score was 4.21 ± 0.07. IRGYGAWGQWGSYRFRESES showed an amyloid nucleation score of 1.6 ± 0.17. PCTGLRHGLHEFMSRYPDRD showed an amyloid nucleation score of 0.215 ± 0.97. Substance FYLSYVIIYSSSIRCLSSCR has an amyloid nucleation score of 0.388 ± 0.71. For LVMYCWRTYVYLRTSRGYDA, the amyloid nucleation score was 0.259 ± 0.61. For GCMVFS, the amyloid nucleation score was 0.352 ± 0.76. For RRRRSDKDVYPFQSFMFNVV, the amyloid nucleation score was 0.476 ± 0.3. Work on SFYYIWRGLVTSED yielded an amyloid nucleation score of -0.779 ± 0.8. With YVLYCICV the amyloid nucleation score was 5.95 ± 0.073. With YRNEESVSKSHGCHDMSWFA the amyloid nucleation score was 0.505 ± 0.54. LRLCWLNQVRNKQGL showed an amyloid nucleation score of -0.481 ± 0.92. For MLQCYLLFARYLLRNLSWGW, the amyloid nucleation score was 0.59 ± 0.62. VMVFGSMPVDDLLHFWLECY gave an amyloid nucleation score of -0.102 ± 0.42. SLLTCILGFPSCPGASMMFQ gave an amyloid nucleation score of 7.057 ± 0.067.
